Measurements taken from the supplement of paper PMC5998384.

Tests used:
HeLa Kyoto [1] = assay: melting temperature (median over replicates), in situ; higher = more thermally stable
HeLa Kyoto [2] = assay: solubility change mitosis vs G1/S (difference of NP-40 vs SDS log2 ratios) (log2 ratio difference); higher = more soluble in mitosis
HeLa Kyoto [3] = assay: solubility in G1/S (NP-40 vs SDS abundance) (log2 ratio); higher = more soluble; details: cell cycle stage: G1/S
HeLa Kyoto [4] = assay: thermal stability score vs G1/S (z-score of summed log2 fold changes over temperatures); higher = more thermally stable than in G1/S
[5] = cell cycle stage: early G1 (4.5 h after nocodazole release)
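Throughout, for melting temperature (median over replicates), in situ: HeLa Kyoto cells synchronized by double thymidine or nocodazole block, proteins quantified by TMT10plex mass spectrometry, three independent biological replicates.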
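Throughout, for solubility change mitosis vs G1/S (difference of NP-40 vs SDS log2 ratios): synchronized HeLa Kyoto cells (double thymidine block for G1/S, nocodazole release for mitosis), protein amounts in NP-40 versus SDS lysates quantified by mass spectrometry, three biological replicates.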
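Throughout, for solubility in G1/S (NP-40 vs SDS abundance): HeLa Kyoto cells arrested at G1/S by double thymidine block, proteins quantified by TMT10plex mass spectrometry in mild NP-40 versus SDS extracts, three biological replicates.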
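Throughout, for thermal stability score vs G1/S (z-score of summed log2 fold changes over temperatures): synchronized HeLa Kyoto cells, proteins quantified by TMT10plex mass spectrometry, three biological replicates, mitosis taken 0.5 h after nocodazole release, G1/S directly after double thymidine block.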

Row | Sequence | melting temperature (HeLa Kyoto [1]; cell cycle stage: G1/S) | melting temperature (HeLa Kyoto [1]; cell cycle stage: mitosis) | solubility change mitosis (log2) (HeLa Kyoto [2]) | solubility in G1/S (log2) (HeLa Kyoto [3]) | thermal stability score (HeLa Kyoto [4]; [5]) | thermal stability score (HeLa Kyoto [4]; cell cycle stage: mitosis)
1 | MSRIESLTRARIDRSRELASKTREKEKMKEAKDARYTNGHLFTTISVSGMTMCYACNKSITAKEALICPTCNVTIHNRCKDTLANCTKVKQKQQKAALLKNNTALQSVSLRSKTTIRERPSSAIYPSDSFRQSLLGSRRGRSSLSLAKSVSTTNIAGHFNDESPLGLRRILSQSTDSLNMRNRTLSVESLIDEAEVIYSELMSDFEMDEKDFAADSWSLAVDSSFLQQHKKEVMKQQDVIYELIQTELHHVRTLKIMTRLFRTGMLEELHLEPGVVQGLFPCVDELSDIHTRFLSQLLERRRQALCPGSTRNFVIHRLGDLLISQFSGPSAEQMCKTYSEFCSRHSKALKLYKELYARDKRFQQFIRKVTRPAVLKRHGVQECILLVTQRITKYPLLISRILQHSHGIEEERQDLTTALGLVKELLSNVDEGIYQLEKGARLQEIYNRMDPRAQTPVPGKGPFGREELLRRKLIHDGCLLWKTATGRFKDVLVLLMTDVLVFLQEKDQKYIFPTLDKPSVVSLQNLIVRDIANQEKGMFLISAAPPEMYEVHTASRDDRSTWIRVIQQSVRTCPSREDFPLIETEDEAYLRRIKMELQQKDRALVELLREKVGLFAEMTHFQAEEDGGSGMALPTLPRGLFRSESLESPRGERLLQDAIREVEGLKDLLVGPGVELLLTPREPALPLEPDSGGNTSPGVTANGEARTFNGSIELCRADSDSSQRDRNGNQLRSPQEEALQRLVNLYGLLHGLQAAVAQQDTLMEARFPEGPERREKLCRANSRDGEAGRAGAAPVAPEKQATELALLQRQHALLQEELRRCRRLGEERATEAGSLEARLRESEQARALLEREAEEARRQLAALGQTEPLPAEAPWARRPVDPRRRSLPAGDALYLSFNPPQPSRGTDRLDLPVTTRSVHRNFEDRERQELGSPEERLQDSSDPDTGSEEEGSSRLSPPHSPRDFTRMQDIPEETESRDGEAVASES [ARHGEF2] | 48.4 °C | 48.4 °C | -0.0226 | -0.137 | 0.217 | 2.08
2 | MSRKGPRAEVCADCSAPDPGWASISRGVLVCDECCSVHRSLGRHISIVKHLRHSAWPPTLLQMVHTLASNGANSIWEHSLLDPAQVQSGRRKANPQDKVHPIKSEFIRAKYQMLAFVHKLPCRDDDGVTAKDLSKQLHSSVRTGNLETCLRLLSLGAQANFFHPEKGTTPLHVAAKAGQTLQAELLVVYGADPGSPDVNGRTPIDYARQAGHHELAERLVECQYELTDRLAFYLCGRKPDHKNGHYIIPQMADSLDLSELAKAAKKKLQALSNRLFEELAMDVYDEVDRRENDAVWLATQNHSTLVTERSAVPFLPVNPEYSATRNQGRQKLARFNAREFATLIIDILSEAKRRQQGKSLSSPTDNLELSLRSQSDLDDQHDYDSVASDEDTDQEPLRSTGATRSNRARSMDSSDLSDGAVTLQEYLELKKALATSEAKVQQLMKVNSSLSDELRRLQREIHKLQAENLQLRQPPGPVPTPPLPSERAEHTPMAPGGSTHRRDRQAFSMYEPGSALKPFGGPPGDELTTRLQPFHSTELEDDAIYSVHVPAGLYRIRKGVSASAVPFTPSSPLLSCSQEGSRHTSKLSRHGSGADSDYENTQSGDPLLGLEGKRFLELGKEEDFHPELESLDGDLDPGLPSTEDVILKTEQVTKNIQELLRAAQEFKHDSFVPCSEKIHLAVTEMASLFPKRPALEPVRSSLRLLNASAYRLQSECRKTVPPEPGAPVDFQLLTQQVIQCAYDIAKAAKQLVTITTREKKQ [GIT1] | 48.4 °C | 50 °C | -0.123 | 0.235 | 0.709 | 0.998
3 | MSRPLITRSPASPLNNQGIPTPAQLTKSNAPVHIDVGGHMYTSSLATLTKYPESRIGRLFDGTEPIVLDSLKQHYFIDRDGQMFRYILNFLRTSKLLIPDDFKDYTLLYEEAKYFQLQPMLLEMERWKQDRETGRFSRPCECLVVRVAPDLGERITLSGDKSLIEEVFPEIGDVMCNSVNAGWNHDSTHVIRFPLNGYCHLNSVQVLERLQQRGFEIVGSCGGGVDSSQFSEYVLRRELRRTPRVPSVIRIKQEPLD [KCTD1] | 58.7 °C | 55.9 °C | -0.267 | 0.464 | 0.414 | 0.162
4 | MSRPRKRLAGTSGSDKGLSGKRTKTENSGEALAKVEDSNPQKTSATKNCLKNLSSHWLMKSEPESRLEKGVDVKFSIEDLKAQPKQTTCWDGVRNYQARNFLRAMKLGEEAFFYHSNCKEPGIAGLMKIVKEAYPDHTQFEKNNPHYDPSSKEDNPKWSMVDVQFVRMMKRFIPLAELKSYHQAHKATGGPLKNMVLFTRQRLSIQPLTQEEFDFVLSLEEKEPS [THYN1] | 47.3 °C | 51.3 °C | 0.199 | 0.389 | -1.19 | -1.36
